Positions count from the first letter of the chain named. Names and notes keep the numbering of the source.
Biological target: T1, PUF4 RNA-binding domain (Saccharomyces cerevisiae, UniProt P25339 537-888)
T1 sequence: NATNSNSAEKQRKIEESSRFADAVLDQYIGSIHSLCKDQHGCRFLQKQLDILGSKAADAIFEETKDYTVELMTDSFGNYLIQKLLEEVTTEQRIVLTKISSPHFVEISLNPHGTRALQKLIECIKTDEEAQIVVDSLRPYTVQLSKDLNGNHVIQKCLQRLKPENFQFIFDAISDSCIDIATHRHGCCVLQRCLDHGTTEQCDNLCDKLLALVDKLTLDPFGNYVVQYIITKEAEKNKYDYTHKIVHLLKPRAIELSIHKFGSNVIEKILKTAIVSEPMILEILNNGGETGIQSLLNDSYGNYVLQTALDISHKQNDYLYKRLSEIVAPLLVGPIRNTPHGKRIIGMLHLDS
Experiment: Mg; RNA-MaP; 20 mM Na-HEPES pH 7.4, 30 mM KOAc, 0.75 mM MgCl2, 0.1% Tween-20, 5% glycerol, 0.1 mg/mL BSA, 2 mM DTT; 25 C; 0.0125-409.6 nM protein
Conditions: tags: N-His6-TEV cleaved; C-SNAP kept, Cy3B-labelled; label: tethered on chip by stalled RNA polymerase

UCUCUUUGUAUACUUUCUCUU (ssRNA) [Ic_S1_P4E.1_K4.1_C4.1_H4.1_A4.1_[T7C]_F4.1_[A9T]_T4.1]
Kd: 5.99 nM

UCUCUUAGUAUAUAUAUAUCUCUU (ssRNA) [Id_i_S1_P3E.3_K3.2_C3.2_[C-2A]_[T-1G]_H3.2_A3.1_F3.1_T3.2]
Kd: 576 nM

UCUCUUUCACACUAUAUAUCUCUU (ssRNA) [Id_i_S1_P3E.4_K3.3_C3.2_[C-2T]_[T-1C]_H3.3_A3.1_F3.1_T3.2]
Kd: > 2300 nM

UCUCUUUGUAUAGUUUCUCUU (ssRNA) [Ic_S1_P4E.1_K4.1_C4.1_H4.1_A4.1_[T7G]_F4.1_[A9T]_T4.1]
Kd: 9.53 nM

UCUCUUAUCACACUAUAUAUCUCUU (ssRNA) [Id_i_S1_P3E.7_K3.3_C3.3_[T-3A]_[C-2T]_[T-1C]_H3.3_A3.1_F3.1_T3.2]
Kd: 1520 nM

UCUCUUGCUAUAUUAUCUCUU (ssRNA) [Ib_S1_P4E.1_K4.1_C4.1_H4.1_[T1G]_[G2C]_A4.1_F4.1_T4.1]
Kd: 481 nM

UCUCUUUCUAUAUAUAUAUCUCUU (ssRNA) [Id_ii_S1_P3E.3_K3.2_C3.2_[C-2T]_[T-1C]_H3.2_A3.1_F3.1_T3.2]
Kd: 368 nM

B1: Id_ii_S2_P3E.2_K3.1_C3.2_[C-2T]_[T-1G]_H3.1_A3.1_F3.1_T3.2 (ssRNA)
RNA: UUUGAUUAAUAUGAUAUCGUUCUUUCUUGUGUAUAUAUAUUCUUUCUCGAUAUCAUAUUAAUCUUU
Kd: 1.57 nM

B2: Id_i_S2_P3E.2_K3.1_C3.2_[C-2T]_[T-1C]_H3.1_A3.1_F3.1_T3.2 (ssRNA)
RNA: B1 RNA with G29C
Kd: 1.18 nM

B3: Id_i_S2_P3E.2_K3.1_C3.2_[C-2T]_[T-1A]_H3.1_A3.1_F3.1_T3.2 (ssRNA)
RNA: B1 RNA with G29A
Kd: 4.51 nM

B4: Id_ii_S2_P3E.3_K3.2_C3.2_[C-2A]_[T-1C]_H3.2_A3.1_F3.1_T3.2 (ssRNA)
RNA: B1 RNA with U28A, G29C, G31A
Kd: 66.8 nM

B5: Id_i_S2_P3E.3_K3.2_C3.2_[C-2T]_[T-1A]_H3.2_A3.1_F3.1_T3.2 (ssRNA)
RNA: B1 RNA with G29A, G31A
Kd: 560 nM

B6: Id_ii_S2_P3E.2_K3.1_C3.2_[C-2A]_[T-1C]_H3.1_A3.1_F3.1_T3.2 (ssRNA)
RNA: B1 RNA with U28A, G29C
Kd: 1.6 nM

B7: Id_ii_S2_P3E.3_K3.2_C3.2_[C-2T]_[T-1C]_H3.2_A3.1_F3.1_T3.2 (ssRNA)
RNA: B1 RNA with G29C, G31A
Kd: 71.4 nM

UCUCUUCUCACACUAUAUAUCUCUU (ssRNA) [Id_i_S1_P3E.7_K3.3_C3.3_[T-3C]_[C-2T]_[T-1C]_H3.3_A3.1_F3.1_T3.2]
Kd: > 2300 nM

UCUCUUUAACACUAUAUAUCUCUU (ssRNA) [Id_ii_S1_P3E.4_K3.3_C3.2_[C-2T]_[T-1A]_H3.3_A3.1_F3.1_T3.2]
Kd: 2160 nM

UCUCUUCUGUAUAUAUAUAUCUCUU (ssRNA) [Id_i_S1_P3E.6_K3.2_C3.3_[T-3C]_[C-2T]_[T-1G]_H3.2_A3.1_F3.1_T3.2]
Kd: 8.87 nM

UCUCUUACUGUAUAUAUAUCUCUU (ssRNA) [Id_i_S1_P3E.2_K3.1_C3.2_[C-2A]_[T-1C]_H3.1_A3.1_F3.1_T3.2]
Kd: 9.07 nM

UCUCUUAGACACUAUAUAUCUCUU (ssRNA) [Id_ii_S1_P3E.4_K3.3_C3.2_[C-2A]_[T-1G]_H3.3_A3.1_F3.1_T3.2]
Kd: > 2300 nM

UCUCUUGUCUGUAUAUAUAUCUCUU (ssRNA) [Id_i_S1_P3E.5_K3.1_C3.3_[T-3G]_[C-2T]_[T-1C]_H3.1_A3.1_F3.1_T3.2]
Kd: 4.63 nM

UCUCUUACACACUAUAUAUCUCUU (ssRNA) [Id_i_S1_P3E.4_K3.3_C3.2_[C-2A]_[T-1C]_H3.3_A3.1_F3.1_T3.2]
Kd: 998 nM

UCUCUUAUCUGUAUAUAUAUCUCUU (ssRNA) [Id_i_S1_P3E.5_K3.1_C3.3_[T-3A]_[C-2T]_[T-1C]_H3.1_A3.1_F3.1_T3.2]
Kd: 6.91 nM

UCUCUUAACUGUAUAUAUAUCUCUU (ssRNA) [Id_i_S1_P3E.5_K3.1_C3.3_[T-3A]_[C-2A]_[T-1C]_H3.1_A3.1_F3.1_T3.2]
Kd: 6.08 nM

UCUCUUUGUAUAUAUAUAUCUCUU (ssRNA) [Id_ii_S1_P3E.3_K3.2_C3.2_[C-2T]_[T-1G]_H3.2_A3.1_F3.1_T3.2]
Kd: 6.55 nM

UCUCUUGCUAUAUAUAUAUCUCUU (ssRNA) [Id_i_S1_P3E.3_K3.2_C3.2_[C-2G]_[T-1C]_H3.2_A3.1_F3.1_T3.2]
Kd: 569 nM

UCUCUUACUAUAUAUAUAUCUCUU (ssRNA) [Id_i_S1_P3E.3_K3.2_C3.2_[C-2A]_[T-1C]_H3.2_A3.1_F3.1_T3.2]
Kd: 458 nM

UCUCUUCUAACACUAUAUAUCUCUU (ssRNA) [Id_i_S1_P3E.7_K3.3_C3.3_[T-3C]_[C-2T]_[T-1A]_H3.3_A3.1_F3.1_T3.2]
Kd: > 2300 nM

UCUCUUUGUAUAAUUUCUCUU (ssRNA) [Ib_S1_P4E.1_K4.1_C4.1_H4.1_A4.1_[T7A]_F4.1_[A9T]_T4.1]
Kd: 8.41 nM

UCUCUUAAACACUAUAUAUCUCUU (ssRNA) [Id_i_S1_P3E.4_K3.3_C3.2_[C-2A]_[T-1A]_H3.3_A3.1_F3.1_T3.2]
Kd: > 2300 nM

UCUCUUCACUGUAUAUAUAUCUCUU (ssRNA) [Id_i_S1_P3E.5_K3.1_C3.3_[T-3C]_[C-2A]_[T-1C]_H3.1_A3.1_F3.1_T3.2]
Kd: 5.56 nM

UCUCUUGGCUGUAUAUAUAUCUCUU (ssRNA) [Id_i_S1_P3E.5_K3.1_C3.3_[T-3G]_[C-2G]_[T-1C]_H3.1_A3.1_F3.1_T3.2]
Kd: 6.92 nM

Reference: article PMC9352680, “A comprehensive thermodynamic model for RNA binding by the Saccharomyces cerevisiae Pumilio protein PUF4”
